Our source for the EC50 values is patent US20250092140A1 (published 2025).

The target in one test is T1, HuB7H3-Fc (human, UniProt Q5ZPR3 29-245).
T1 chain: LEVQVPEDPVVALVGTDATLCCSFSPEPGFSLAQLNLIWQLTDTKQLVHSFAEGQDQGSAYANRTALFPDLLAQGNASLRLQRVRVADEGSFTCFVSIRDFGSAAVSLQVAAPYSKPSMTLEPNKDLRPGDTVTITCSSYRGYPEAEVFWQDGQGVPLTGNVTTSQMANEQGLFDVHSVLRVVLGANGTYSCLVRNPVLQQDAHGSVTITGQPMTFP
Kind of test: sandwich ELISA; dual binding, HuB7H3-Fc coated, NKP30-his detected. For orientation: ELISA stands for enzyme-linked immunosorbent assay.

A further test has as its target T2, HuB7H3-his (human, UniProt Q5ZPR3 29-245).
T2 chain: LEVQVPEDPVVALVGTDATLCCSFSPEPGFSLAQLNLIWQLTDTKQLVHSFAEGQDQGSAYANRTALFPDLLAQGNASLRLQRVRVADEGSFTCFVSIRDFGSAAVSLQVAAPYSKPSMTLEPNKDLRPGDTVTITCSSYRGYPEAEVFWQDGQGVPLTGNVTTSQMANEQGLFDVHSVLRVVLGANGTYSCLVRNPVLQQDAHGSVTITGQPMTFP
Kind of test: ELISA.

For the next test, the target named is T3, human-NKP30-His (human, UniProt O14931 19-138).
T3 chain: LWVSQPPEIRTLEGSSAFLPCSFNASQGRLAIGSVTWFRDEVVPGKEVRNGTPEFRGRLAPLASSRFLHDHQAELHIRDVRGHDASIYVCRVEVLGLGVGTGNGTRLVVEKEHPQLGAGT
As to the kind of experiment: ELISA.

B1: constructed antibody D28 (bispecific antibody)
heavy: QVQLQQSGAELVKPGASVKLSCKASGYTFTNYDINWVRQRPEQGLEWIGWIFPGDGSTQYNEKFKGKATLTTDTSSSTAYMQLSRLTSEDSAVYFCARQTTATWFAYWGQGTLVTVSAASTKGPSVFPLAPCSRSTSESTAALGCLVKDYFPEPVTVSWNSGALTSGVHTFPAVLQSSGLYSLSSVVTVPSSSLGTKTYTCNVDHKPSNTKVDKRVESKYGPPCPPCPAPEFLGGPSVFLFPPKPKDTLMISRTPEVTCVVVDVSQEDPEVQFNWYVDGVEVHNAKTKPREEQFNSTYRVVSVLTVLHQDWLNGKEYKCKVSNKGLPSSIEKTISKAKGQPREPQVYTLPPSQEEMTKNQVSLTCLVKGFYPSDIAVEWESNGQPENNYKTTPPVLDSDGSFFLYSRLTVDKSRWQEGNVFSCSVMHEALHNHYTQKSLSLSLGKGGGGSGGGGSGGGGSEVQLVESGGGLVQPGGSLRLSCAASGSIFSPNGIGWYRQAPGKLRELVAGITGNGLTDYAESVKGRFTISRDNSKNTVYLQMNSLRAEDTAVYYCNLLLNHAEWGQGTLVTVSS
light: DIVMTQSPATLSVTPGDRVSLSCRASQSISDYLHWYQQKSHESPRLLIKYASQSISGIPSRFSGSGSGSDFTLSINSVEPEDVGVYYCQNGHSFPLTFGAGTKLELKRTVAAPSVFIFPPSDEQLKSGTASVVCLLNNFYPREAKVQWKVDNALQSGNSQESVTEQDSKDSTYSLSSTLTLSKADYEKHKVYACEVTHQGLSSPVTKSFNRGEC
As a reminder, the EC50 is the concentration that produces a half-maximal response. High values mean weaker potency, low ones greater potency. In the case of B1, in the test with HuB7H3-Fc, the EC50 stood at 0.445 µg/mL.

B2: constructed antibody A25 (bispecific antibody)
heavy: not shown
light: DIVMTQSPATLSVTPGDRVSLSCRASQSISDYLHWYQQKSHESPRLLIKYASQSISGIPSRFSGSGSGSDFTLSINSVEPEDVGVYYCQNGHSFPLTFGAGTKLELKRTVAAPSVFIFPPSDEQLKSGTASVVCLLNNFYPREAKVQWKVDNALQSGNSQESVTEQDSKDSTYSLSSTLTLSKADYEKHKVYACEVTHQGLSSPVTKSFNRGEC
Take B2: the EC50 was 0.0526 µg/mL in the test with HuB7H3-his, 0.19 µg/mL with HuB7H3-Fc and 0.00817 µg/mL with human-NKP30-His.

B3: NKP30 monoclonal antibody (antibody, V domains shown)
VH: EVQLVESGGGLVQPGGSLRLSCAASGITFSRSVMGWFRQAPGKLRELVAGITSDDNTDYADSVKGRFTISRDNSKNTLYLQMNSLRAEDTAVYYCNILPDSRLGWGQGTLVTVSS
B3 gave an EC50 with human-NKP30-His of 0.00258 µg/mL.
